Patent US20140178332A1 (published 2014)
Positions count from the first letter of the chain named.

T1: recombinant purified cyno IL-12 p70 (cynomolgus monkey)
T1 chain 1: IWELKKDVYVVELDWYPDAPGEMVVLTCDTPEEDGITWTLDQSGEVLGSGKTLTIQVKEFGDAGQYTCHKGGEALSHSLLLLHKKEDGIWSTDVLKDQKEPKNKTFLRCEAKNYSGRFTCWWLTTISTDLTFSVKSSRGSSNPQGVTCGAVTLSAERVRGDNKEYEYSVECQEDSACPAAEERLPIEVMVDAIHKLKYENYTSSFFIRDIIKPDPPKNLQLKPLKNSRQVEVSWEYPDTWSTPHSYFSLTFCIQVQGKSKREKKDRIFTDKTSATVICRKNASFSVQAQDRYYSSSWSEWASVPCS
T1 chain 2: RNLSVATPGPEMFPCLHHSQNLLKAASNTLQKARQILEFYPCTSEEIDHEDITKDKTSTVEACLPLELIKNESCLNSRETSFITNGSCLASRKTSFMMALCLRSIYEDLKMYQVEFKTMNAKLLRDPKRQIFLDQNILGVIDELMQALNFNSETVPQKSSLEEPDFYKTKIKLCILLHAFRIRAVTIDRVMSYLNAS

T2: recombinant purified human IL-12 p70 (human, UniProt P29459 23-219)
T2 sequence 1: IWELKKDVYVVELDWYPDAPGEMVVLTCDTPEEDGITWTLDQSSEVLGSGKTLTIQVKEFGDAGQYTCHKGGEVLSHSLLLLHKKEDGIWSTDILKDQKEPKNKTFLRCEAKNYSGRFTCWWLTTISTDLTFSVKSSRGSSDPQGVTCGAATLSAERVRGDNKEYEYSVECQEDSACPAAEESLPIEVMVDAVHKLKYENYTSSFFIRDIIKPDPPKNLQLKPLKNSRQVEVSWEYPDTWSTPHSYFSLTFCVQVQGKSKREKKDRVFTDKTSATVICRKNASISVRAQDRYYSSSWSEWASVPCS
T2 sequence 2: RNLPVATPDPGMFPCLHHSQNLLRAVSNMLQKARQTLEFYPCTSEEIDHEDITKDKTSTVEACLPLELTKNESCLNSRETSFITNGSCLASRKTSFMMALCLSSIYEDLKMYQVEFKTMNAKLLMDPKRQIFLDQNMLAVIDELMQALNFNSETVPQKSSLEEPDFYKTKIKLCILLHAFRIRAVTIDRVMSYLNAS

B1: CDR grafted anti IL-12p40 antibody 1A6.2 (antibody, human IgG1, kappa, L234A L235A, V domains shown)
VH: EVTLKESGPVLVKPTETLTLTCTVSGFSLSTSGMGVSWIRQPPGKALEWLAHIWWDGDNYYNPSLKSRLTISKDTSKSQVVLTMTNMDPVDTATYYCARRTRVNYAMDYWGQGTTVTVSS
VL: EIVMTQSPATLSVSPGERATLSCKASQSVSNDVAWYQQKPGQAPRLLIYYASNRYTGIPARFSGSGSGTEFTLTISSLQSEDFAVYYCQQDYNSPWTFGGGTKVEIKR
notes: Full-length CDR-grafted antibody, COS cells
B2: CDR grafted anti IL-12p40 antibody 3G7.2 (antibody, human IgG1, kappa, L234A L235A, V domains shown)
VH: EVQLVQSGAEVKKPGASVKVSCKASGYTFTDYWIEWVRQAPGQGLEWMGGFSHGSGSTNYNEKFKGRVTMTTDTSTSTAYMELRSLRSDDTAVYYCARRRFRGMDYWGQGTTVTVSS
VL: B1 VL with N93S, T97S
notes: as for B1
B3: CDR grafted anti IL-12p40 antibody 1A6.5 (antibody, human IgG1, kappa, L234A L235A, V domains shown)
VH: B1 VH with K5R, V10A, E16Q, V24F, S78N
VL: B1 VL
notes: as for B1
B4: CDR grafted anti IL-12p40 antibody 1D4.1 (antibody, human IgG1, kappa, L234A L235A, V domains shown)
VH: EVTLRESGPALVKPTQTLTLTCTFSGFSLSKSVMGVSWIRQPPGKALEWLAHIYWDDDKYYNPSLKSRLTISKDTSKNQVVLTMTNMDPVDTATYYCARRGIRSAMDYWGQGTTVTVSS
VL: DIVMTQSPDSLAVSLGERATINCKASQSVSNDVAWYQQKPGQPPKLLIYYASNRYTGVPDRFSGSGSGTDFTLTISSLQAEDVAVYYCQQDYNSPWTFGGGTKVEIKR
notes: as for B1
B5: CDR grafted anti IL-12p40 antibody 3G7.1 (antibody, human IgG1, kappa, L234A L235A, V domains shown)
VH: B2 VH with A16S, Y27G, T30S, M70I, T72A, T74K, R84S, D89E
VL: B4 VL with N93S, T97S
notes: as for B1
B6: CDR grafted anti IL-12p40 antibody 1A6.1 (antibody, human IgG1, kappa, L234A L235A, V domains shown)
VH: B1 VH with K5R, V10A, E16Q, V24F, S78N
VL: B4 VL
notes: as for B1
B7: CDR grafted anti IL-12p40 antibody 1D4.2 (antibody, human IgG1, kappa, L234A L235A, V domains shown)
VH: B4 VH with R5K, A10V, Q16E, F24V, N78S
VL: B1 VL
notes: as for B1
B8: CDR grafted anti IL-12p40 antibody 1D4.3 (antibody, human IgG1, kappa, L234A L235A, V domains shown)
VH: B4 VH
VL: B1 VL
notes: as for B1
B9: CDR grafted anti IL-12p40 antibody 1A6.6 (antibody, human IgG1, kappa, L234A L235A, V domains shown)
VH: B1 VH
VL: B4 VL
notes: as for B1
B10: CDR grafted anti IL-12p40 antibody 8E1.1 (antibody, human IgG1, kappa, L234A L235A, V domains shown)
VH: EVQLVESGGGLVQPGGSLRLSCAASGFTFSDYGMVWVRQAPGKGLEWVGSISSGSSNIYYADTVKGRFTISRDDSKNSLYLQMNSLKTEDTAVYYCARNPYWGQGTTVTVSS
VL: DIQMTQSPSSLSASVGDRVTITCKASQNVGTNVAWYQQKPEKAPKSLIYSASHRYSGVPSRFSGSGSGTDFTLTISSLQPEDFATYYCQQYNSYPLTFGGGTKVEIKR
notes: as for B1

Target: T1, recombinant purified cyno IL-12 p70
Experiment: cell-based or functional assay

Av. IC50 (nM) Cyno IL-12, PHA blast assay [nM]	Binder
0.84	B1
0.7	B2
1.1	B3
1.5	B4
1.2	B5
0.57	B6
3	B7
1.6	B8
0.14	B9
4.6	B10

What follows are binders tested against T2, recombinant purified human IL-12 p70 (assay: cell-based or functional assay).

Av. IC50 (nM) Hu IL-12, PHA blast assay [nM]	Binder
1.1	B1
0.24	B2
1.9	B3
0.47	B4
0.56	B5
0.48	B6
3	B7
0.83	B8
0.59	B9
2.8	B10

Each binder was assayed against T2, recombinant purified human IL-12 p70 (assay: SPR (Biacore) as in Example 1.1.B, human IL-12p70).
Experimental: Approximately 5000 RU of goat anti-mouse IgG, (Fcγ), fragment specific polyclonal antibody (Pierce Biotechnology Inc, Rockford, Ill.) diluted in 10 mM sodium acetate (pH 4.5) was directly immobilized across a CM5 research grade biosensor chip using a standard amine coupling kit according to manufacturer's instructions and procedures at 25 μg/ml. Unreacted moieties on the biosensor surface were blocked with ethanolamine. Modified carboxymethyl dextran surface in flowcell 2 and 4 was used as a reaction surface. Unmodified carboxymethyl dextran without goat anti-mouse IgG in flow cell 1 and 3 was used as the reference surface. For kinetic analysis, rate equations derived from the 1:1 Langmuir binding model were fitted simultaneously to association and dissociation phases of all eight injections (using global fit analysis) with the use of Biaevaluation 4.0.1 software. Purified antibodies were diluted in HEPES-buffered saline for capture across goat anti-mouse IgG specific reaction surfaces. Mouse antibodies to be captured as a ligand (25 μg/ml) were injected over reaction matrices at a flow rate of 5 μl/min. The association and dissociation rate constants, kₒₙ (unit M⁻¹ s⁻¹) and koff (unit s⁻¹) were determined under a continuous flow rate of 25 μl/min. Rate constants were derived by making kinetic binding measurements at ten different antigen concentrations ranging from 10-200 nM. The equilibrium dissociation constant (unit M) of the reaction between mouse antibodies and recombinant purified human IL-12 p70 or recombinant purified human IL-12 p40 was then calculated from the kinetic rate constants by the following formula: KD=koff/kₒₙ. Binding is recorded as a function of time and kinetic rate constants are calculated. In this assay, on-rates as fast as 10⁶M⁻¹ s⁻¹ and off-rates as slow as 10⁻⁶ can be measured. […]

Kd [nM]	koff [s⁻¹]	kon [M⁻¹ s⁻¹]	Binder
0.54	5.4e-05	100000	B1
0.23	0.00014	610000	B2
0.43	5.6e-05	130000	B3
0.12	2.9e-05	260000	B4
0.22	9.1e-05	420000	B5
0.27	2.9e-05	110000	B6
1.7	0.00026	160000	B7
0.25	5.3e-05	210000	B8
1.7	0.00087	520000	B10
